The values that follow come from the supplement of paper PMC9112550, “Optimization of the antimicrobial peptide Bac7 by deep mutational scanning” (BMC Biology, 2022).

The subject of the data set is Escherichia coli TOP10. Briefly: shrunken log2 fold change of peptide-encoding DNA abundance (4.5 h post-induction vs induction); higher = less antimicrobial activity (less host growth inhibition). The following applies: time post-induction: 4.5 h; library: site-saturation at positions 5, 18, 19, 20.
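Also: peptides expressed intracellularly from a pBAD plasmid library in pooled LB shake-flask culture, induced with 0.3% L-arabinose, DNA abundance read by NGS, three biological replicates, DESeq2 with apeglm shrinkage.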

As for RRIRPRPPRLPRPRPRPCTFPRP, the “shrunken log2 fold change” value is -0.00278. Under RRIRPRPPRLPRPRPRPELWPRP stands 0.889; under RRIRLRPPRLPRPRPRPKDPPRP, -0.221; under RRIRPRPPRLPRPRPRPCFEPRP, 0.0232. Take RRIRCRPPRLPRPRPRPCNEPRP: the “shrunken log2 fold change” value is -0.514. Then RRIRWRPPRLPRPRPRPRDGPRP, with 1.12; and RRIRSRPPRLPRPRPRPIPPPRP, with -0.0431; and RRIRTRPPRLPRPRPRPCARPRP, with -0.187. Then RRIRRRPPRLPRPRPRPGRLPRP, with 0.728; and RRIRVRPPRLPRPRPRPKFCPRP, with -0.137; and RRIRIRPPRLPRPRPRPYQWPRP, with -0.316. As for RRIRPRPPRLPRPRPRPEFEPRP, the “shrunken log2 fold change” value is -0.0475. Then RRIRVRPPRLPRPRPRPDEPPRP, with 0.225. Then RRIRPRPPRLPRPRPRPYVPPRP, with -0.0652; and RRIRHRPPRLPRPRPRPLHYPRP, with -0.284; and RRIRPRPPRLPRPRPRPQDCPRP, with 0.104. Under RRIRNRPPRLPRPRPRPKMDPRP stands 0.0178; under RRIRQRPPRLPRPRPRPPCIPRP, -0.053. Regarding RRIRYRPPRLPRPRPRPGPNPRP, the “shrunken log2 fold change” value turned out to be 0.205. Under RRIRYRPPRLPRPRPRPLVLPRP stands -0.206; under RRIRSRPPRLPRPRPRPCRFPRP, -0.0924.

For RRIRCRPPRLPRPRPRPNQFPRP, the “shrunken log2 fold change” value is -0.23.

For RRIRYRPPRLPRPRPRPTCNPRP, the “shrunken log2 fold change” value was -0.351. Under RRIRTRPPRLPRPRPRPYPWPRP stands -0.178; under RRIRKRPPRLPRPRPRPDPMPRP, 0.86; under RRIRPRPPRLPRPRPRPISDPRP, -0.507.

Regarding RRIRSRPPRLPRPRPRPMMRPRP, the “shrunken log2 fold change” value was determined as 0.836.

As to RRIRSRPPRLPRPRPRPCFPPRP, the “shrunken log2 fold change” value was -0.747. In the case of RRIRKRPPRLPRPRPRPVTNPRP, the “shrunken log2 fold change” value was -0.0569.

On to RRIRVRPPRLPRPRPRPEFCPRP, for which the “shrunken log2 fold change” value turned out to be 0.267.

Consider RRIRTRPPRLPRPRPRPHHPPRP, for which the “shrunken log2 fold change” value is -0.135. Turning to RRIRQRPPRLPRPRPRPWWNPRP, the “shrunken log2 fold change” value was -0.123. Then RRIRGRPPRLPRPRPRPAGQPRP, with 0.727. Then RRIRSRPPRLPRPRPRPWHKPRP, with -0.195. Under RRIRERPPRLPRPRPRPVDNPRP stands -0.107.

Take RRIRRRPPRLPRPRPRPEPHPRP: the “shrunken log2 fold change” value turned out to be 0.315. Then RRIRHRPPRLPRPRPRPMFNPRP, with -0.608; and RRIRNRPPRLPRPRPRPEVTPRP, with -0.0105; and RRIRYRPPRLPRPRPRPQAQPRP, with 0.0442.

For RRIRKRPPRLPRPRPRPNCEPRP, the “shrunken log2 fold change” value came out at 0.082. Under RRIRERPPRLPRPRPRPPMRPRP stands 0.779.

For RRIRARPPRLPRPRPRPNRAPRP, the “shrunken log2 fold change” value is -0.0385. Then RRIRARPPRLPRPRPRPQVVPRP, with -0.0726; and RRIRQRPPRLPRPRPRPHMHPRP, with -0.39. Then RRIRNRPPRLPRPRPRPEARPRP, with -0.0678. Then RRIRSRPPRLPRPRPRPHLQPRP, with 0.0575.

As for RRIRFRPPRLPRPRPRPDDFPRP, the “shrunken log2 fold change” value came to 0.0834. Then RRIRIRPPRLPRPRPRPHISPRP, with -0.0489; and RRIRCRPPRLPRPRPRPAHFPRP, with 0.147; and RRIRGRPPRLPRPRPRPEGEPRP, with 1.97. In the case of RRIRCRPPRLPRPRPRPMGNPRP, the “shrunken log2 fold change” value is -0.729. With RRIRIRPPRLPRPRPRPHSRPRP, the “shrunken log2 fold change” value was -0.197.

On to RRIRNRPPRLPRPRPRPTIFPRP, for which the “shrunken log2 fold change” value is -0.248.

As for RRIRIRPPRLPRPRPRPWAVPRP, the “shrunken log2 fold change” value is -0.203. In the case of RRIRGRPPRLPRPRPRPPKAPRP, the “shrunken log2 fold change” value was determined as 0.63. Under RRIRDRPPRLPRPRPRPDGCPRP stands 0.252. Then RRIRHRPPRLPRPRPRPFGTPRP, with -0.213; and RRIRTRPPRLPRPRPRPQKVPRP, with -0.0169. With RRIRKRPPRLPRPRPRPKCSPRP, the “shrunken log2 fold change” value was 0.00677.

In the case of RRIRERPPRLPRPRPRPRCWPRP, the “shrunken log2 fold change” value worked out at 0.014. Then RRIRERPPRLPRPRPRPASQPRP, with -0.0177; and RRIRNRPPRLPRPRPRPAMSPRP, with -0.137. Then RRIRDRPPRLPRPRPRPNYKPRP, with -0.241; and RRIRKRPPRLPRPRPRPRADPRP, with 0.511; and RRIRPRPPRLPRPRPRPYYWPRP, with -0.0723. For the sequence RRIRNRPPRLPRPRPRPENQPRP, the “shrunken log2 fold change” value came to 0.216.

Regarding RRIRGRPPRLPRPRPRPWVSPRP, the “shrunken log2 fold change” value is -0.0322. Then RRIRQRPPRLPRPRPRPWMFPRP, with -0.374; and RRIRFRPPRLPRPRPRPFQFPRP, with -0.253; and RRIRWRPPRLPRPRPRPHSDPRP, with 0.0062. Then RRIRARPPRLPRPRPRPGHKPRP, with -0.197; and RRIRPRPPRLPRPRPRPEMHPRP, with 0.395; and RRIRTRPPRLPRPRPRPSSEPRP, with -0.0162.

On to RRIRVRPPRLPRPRPRPNCYPRP, for which the “shrunken log2 fold change” value is -0.411. Then RRIRLRPPRLPRPRPRPGYLPRP, with -0.282; and RRIRFRPPRLPRPRPRPDVYPRP, with -0.32; and RRIRARPPRLPRPRPRPYGKPRP, with -0.747. Under RRIRRRPPRLPRPRPRPTNNPRP stands -0.0392. As for RRIRHRPPRLPRPRPRPEKYPRP, the “shrunken log2 fold change” value is -0.159. In the case of RRIRSRPPRLPRPRPRPLLPPRP, the “shrunken log2 fold change” value came to 0.405. Then RRIRGRPPRLPRPRPRPNVVPRP, with 0.0631; and RRIRYRPPRLPRPRPRPHWAPRP, with -0.24. RRIRERPPRLPRPRPRPIWMPRP: the “shrunken log2 fold change” value is 0.0239.

On to RRIRGRPPRLPRPRPRPWPTPRP, for which the “shrunken log2 fold change” value worked out at 0.233. Then RRIRYRPPRLPRPRPRPSWHPRP, with -1.12. For RRIRNRPPRLPRPRPRPSGRPRP, the “shrunken log2 fold change” value is -0.0659. Under RRIRNRPPRLPRPRPRPTNSPRP stands -0.279.

As to RRIRTRPPRLPRPRPRPGQIPRP, the “shrunken log2 fold change” value was determined as 0.0034. Then RRIRFRPPRLPRPRPRPGGWPRP, with 0.654; and RRIRGRPPRLPRPRPRPNQPPRP, with 0.295; and RRIRWRPPRLPRPRPRPMSPPRP, with 0.000834. For the sequence RRIRWRPPRLPRPRPRPGQEPRP, the “shrunken log2 fold change” value was 0.617. Under RRIRWRPPRLPRPRPRPDRMPRP stands 0.0163.

For the sequence RRIRWRPPRLPRPRPRPTIIPRP, the “shrunken log2 fold change” value is -0.348. Then RRIRNRPPRLPRPRPRPPEIPRP, with -0.169; and RRIRKRPPRLPRPRPRPQTQPRP, with 0.26; and RRIRKRPPRLPRPRPRPTGIPRP, with 0.0402. Under RRIRKRPPRLPRPRPRPWTPPRP stands 0.246. Under RRIRYRPPRLPRPRPRPEKVPRP stands -0.241; under RRIRGRPPRLPRPRPRPPLIPRP, 0.669. As to RRIRHRPPRLPRPRPRPCQWPRP, the “shrunken log2 fold change” value was -0.0469. Then RRIRWRPPRLPRPRPRPAKDPRP, with 0.0218.

With RRIRIRPPRLPRPRPRPEPNPRP, the “shrunken log2 fold change” value was -0.0783.

As for RRIRHRPPRLPRPRPRPEHYPRP, the “shrunken log2 fold change” value turned out to be 0.504.

RRIRYRPPRLPRPRPRPFSTPRP: the “shrunken log2 fold change” value is -0.0961.

On to RRIRMRPPRLPRPRPRPHFLPRP, for which the “shrunken log2 fold change” value was -0.235. In the case of RRIRHRPPRLPRPRPRPDRFPRP, the “shrunken log2 fold change” value is -0.00476. Take RRIRDRPPRLPRPRPRPCDFPRP: the “shrunken log2 fold change” value was 0.0384. Under RRIRMRPPRLPRPRPRPIIPPRP stands 0.000609; under RRIRFRPPRLPRPRPRPEWYPRP, -0.361.

Regarding RRIRTRPPRLPRPRPRPPTNPRP, the “shrunken log2 fold change” value was found to be 0.156. Then RRIRPRPPRLPRPRPRPQPPPRP, with 0.509.

Take RRIRQRPPRLPRPRPRPDFAPRP: the “shrunken log2 fold change” value was -0.0596. Under RRIRKRPPRLPRPRPRPNCSPRP stands 0.149; under RRIRLRPPRLPRPRPRPVDNPRP, -0.491.

With RRIRSRPPRLPRPRPRPYRYPRP, the “shrunken log2 fold change” value is -0.262. Under RRIRLRPPRLPRPRPRPSPEPRP stands 0.00229; under RRIRVRPPRLPRPRPRPIRVPRP, -0.473.

Turning to RRIRHRPPRLPRPRPRPWYVPRP, the “shrunken log2 fold change” value was 0.00296. Then RRIRVRPPRLPRPRPRPTQGPRP, with 0.291. Regarding RRIRTRPPRLPRPRPRPLMWPRP, the “shrunken log2 fold change” value was -0.151. Under RRIRRRPPRLPRPRPRPHWQPRP stands 0.28. RRIRSRPPRLPRPRPRPGMEPRP: the “shrunken log2 fold change” value was found to be 0.148. Then RRIRSRPPRLPRPRPRPANAPRP, with 0.438; and RRIRHRPPRLPRPRPRPGHHPRP, with -0.132.
